Experimental data reported in patent US20030092157, “Compositions, screening systems and methods for modulating HDL cholesterol and triglyceride levels” (published 2003).

Tests used:
LXRα/RXRα heterodimer [1] = molecular target: T1, LXRα/RXRα heterodimer (/ Mus musculus, UniProt Q13133;P28700 Q13133:1-447,P28700:1-467); assay: competition; competed efficiently for CYP7-LXRE probe; settings: tags: pCDNA3-LXRα and pSG5-mRXRα, TNT coupled transcription/translation system (Promega)
T1 sequence 1: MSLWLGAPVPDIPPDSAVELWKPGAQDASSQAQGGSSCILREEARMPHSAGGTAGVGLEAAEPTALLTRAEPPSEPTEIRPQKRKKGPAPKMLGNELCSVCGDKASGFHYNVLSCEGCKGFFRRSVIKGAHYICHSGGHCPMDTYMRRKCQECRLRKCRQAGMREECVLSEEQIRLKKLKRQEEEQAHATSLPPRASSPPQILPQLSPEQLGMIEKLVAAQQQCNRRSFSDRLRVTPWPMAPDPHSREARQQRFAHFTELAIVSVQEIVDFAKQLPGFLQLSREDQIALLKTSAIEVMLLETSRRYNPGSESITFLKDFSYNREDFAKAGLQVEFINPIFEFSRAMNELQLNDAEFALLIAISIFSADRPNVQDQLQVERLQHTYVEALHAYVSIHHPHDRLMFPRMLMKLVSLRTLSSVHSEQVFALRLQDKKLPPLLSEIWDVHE
T1 sequence 2: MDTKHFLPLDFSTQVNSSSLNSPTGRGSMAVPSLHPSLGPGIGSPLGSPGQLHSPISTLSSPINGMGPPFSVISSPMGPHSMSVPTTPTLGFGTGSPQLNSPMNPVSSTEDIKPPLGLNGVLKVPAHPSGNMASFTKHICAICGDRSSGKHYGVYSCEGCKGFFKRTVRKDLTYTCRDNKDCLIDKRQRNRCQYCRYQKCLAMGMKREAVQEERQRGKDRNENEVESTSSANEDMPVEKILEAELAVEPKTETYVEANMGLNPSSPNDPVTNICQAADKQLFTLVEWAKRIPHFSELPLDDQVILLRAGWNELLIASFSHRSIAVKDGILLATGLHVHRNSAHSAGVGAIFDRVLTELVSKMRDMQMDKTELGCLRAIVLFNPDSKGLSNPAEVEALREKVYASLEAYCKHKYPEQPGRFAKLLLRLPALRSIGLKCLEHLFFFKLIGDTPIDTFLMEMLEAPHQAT
Experimental: (§1) For FIG. 2A, HepG2 (liver), HuH7 (hepatoma), CaCo₂ (intestinal) and RK13 (kidney) cell lines were cotransfected with empty pGI3 vector or pGI3 containing an 8 kb fragment upstream of exon 2 of ABC1 intron 1 (pGI3-8 kb). Cells were then incubated for 48 hour. Luciferase activity was determined and plotted as fold activation relative to empty pGI3-transfected cells. The results of gel mobility shift assays in which LXRα and RXR were incubated as indicated with the radiolabeled probe corresponding to CYP7-LXRE are shown in FIG. 2B.
(§2) To investigate whether these DR4 were indeed able to bind LXR-RXR heterodimers, gel retardation assays were performed (FIG. 2B). […] As a control, the unlabeled LXRE previously described in ABC1 exon 1 (+4-LXRE) (10,11) also competed efficiently for binding. The signal was then competed with increasing quantities of each unlabeled putative LXRE.

LXRα/RXRα heterodimer [2] = molecular target: T1, LXRα/RXRα heterodimer; assay: competition; dose-dependent competition, 5-, 25-, 50-fold excess; settings: tags: pCDNA3-LXRα and pSG5-mRXRα, TNT coupled transcription/translation system (Promega)
Experimental: as §1, §2

[3] = molecular target: T2, LXRα/RXR heterodimer (expressed in Cos-1) (Homo sapiens? / Mus musculus?, UniProt Q13133;P28700 Q13133:1-447,P28700:1-467); assay: cell_activity; 3 copies, luciferase, 1 µM 22(R)-hydroxycholesterol
T2 sequence 1: T1 sequence 1
T2 sequence 2: T1 sequence 2
Experimental: (§3) FIG. 3 is a bar graph illustrating that the LXREs are functional for LXRα transactivation. Cos-1 cells were cotransfected with multiple copies of the putative LXREs in the reporter plasmid TKpGI3 and expression plasmids for LXRα and RXR. Cells were then treated for 48 h with 1 μM 22(R)-hydroxycholesterol. Luciferase activity was determined and plotted as fold activation relative to vehicle-treated cells.
(§4) Cells were transfected for 3 hours by lipofection using ExGen 500 (Euromedex) in OPTIMEM 1. Medium was then replaced by Dulbecco's Modified Eagle's Medium (DMEM) containing 0.2% fetal calf serum and cells were incubated for 48 hours. Cell extracts were prepared and assayed for luciferase activity as described(15). Twenty-four hours before transfection, HepG2 cells, HUH7 cells, CaCo2 cells and RK13 cells were plated in 24-well plates in DMEM supplemented with 10% fetal calf serum at 5×10⁴ cells/well. Transfection mixes contained 100 ng of tkpGI3 reporter vector or pGI3 containing an 8 kb fragment from ABC1 intron I (pGI3-8 kb) (FIG. 1). Cos-1 cells were plated in 24-well plates in DMEM supplemented with 10% fetal calf serum at 5×10⁴ cells/well. Transfection mixes contained 50 ng of reporter plasmid (tkpGI3) containing multiple copies of the putative LXREs and 25 ng of LXRα and RXR expression plasmids, in the presence of the internal control β-gal expression vector. […]

[4] = molecular target: T2, LXRα/RXR heterodimer (expressed in …); assay: cell_activity; 3 copies, luciferase, 1 µM 22(R)-hydroxycholesterol; text's "2-fold and 6-fold, respectively"
Experimental: as §3, §4

B1: +4-LXRE (ABC1 exon 1/promoter) (dsDNA)
DNA 1: AGGTTACTATCGGTCA
DNA 2: TGACCGATAGTAACCT
Does B1 bind (LXRα/RXRα heterodimer [1])?
Result: binds

B2: -7188 LXRE (ABC1 intron 1) (dsDNA)
DNA 1: AGATCACTTGAGGTCA
DNA 2: TGACCTCAAGTGATCT
Does B2 bind (LXRα/RXRα heterodimer [2])?
Result: binds

B3: -4696 LXRE (ABC1 intron 1) (dsDNA)
DNA 1: GGATCACCTGAGGTCA
DNA 2: TGACCTCAGGTGATCC
Which activity [3] does the source give for B3 here?
The activity was 2 fold induction.

B4: -7670 LXRE (ABC1 intron 1) (dsDNA)
DNA 1: AGGTTACTGAAGGCCA
DNA 2: TGGCCTTCAGTAACCT
B4 was tested. Which activity [4] did it give?
The activity was 6 fold induction.
